US20250034594A1, “RNA-GUIDED GENOME RECOMBINEERING AT KILOBASE SCALE” (THE BOARD OF TRUSTEES OF THE LELAND STANFORD JUNIOR …, priority 2021, published 2025)

What was measured:
Assay type in all cases: cell-based
gene editing with Cas9 = experiment: Screen of 322 new SSAP proteins, gene editing activity with Cas9 (Table 5); parameters: Cas9 with SSAP activity: scale not given here
How it was run: (§1)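 The 322 SSAP proteins were found in sequence data and then synthesized. Each was screened for gene editing activity when paired with Cas9 and with dCas9.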

gene editing with dCas9 = experiment: Screen of 322 new SSAP proteins, gene editing activity with dCas9 (Table 5); parameters: dCas9 with SSAP activity: scale not given here
How it was run: as §1

[1] = test system: gene editing with Cas9 and dCas9; experiment: Screen of 322 new SSAP proteins, activity across all experiments (Cas9 and dCas9, Table 5); parameters: scale not given here
How it was run: as §1

Row | Molecule | Cas9 with SSAP activity (gene editing with Cas9) | Cas9 with SSAP activity (normalized) (gene editing with Cas9) | dCas9 with SSAP activity (gene editing with dCas9) | dCas9 with SSAP activity (normalized) (gene editing with dCas9) | Activity across all experiments [1]
1 | SSAP_103: SEQ ID NO: 272; Zymobacter palmae (protein, listed as Zymobacter palmae) TNTVQQQAPQQDQLAQQLQQASGNTPQKKPMPSTIQGMLKDDRFKTQIARALPKHVTPERIMRIALTEINKTPKLKECDPIGLFGSIVQSAQLGLELGGALGHAYLVPYGKQAQFIIGYRGMIDLARRSGQMVSLQAHTVHENDEFNFEYGLNENLRHVPARGERGPMIAVYAVAKLVGGGHQIEVMWKEDVDAVRKSSKAGGSGPWRDHYEEMAKKTAIRRLFKYLPVSVEMQRAVSLDEQAEEGVQDNNVFDGDYTVAEH | −0.682 | −0.190 | −4.540 | −0.705 | −2.611
2 | SSAP_277: SEQ ID NO: 446; Nocardia terpenica (protein, listed as Nocardia terpenica) SSIAAAAESAEVTPASIINKYRDDIATVLPPKLRERIDRWIRLAIGAVNSNPELISRVRADQGASMMQALMKCAALGHEPGSGLFHLVPKGSRIEGWEDYKGILQRIDRSGVYARTVIGVVYANDEYSYDQNVDERPRHVRATGDRGEPISSYAYAVYPSGAITTVAEATPEQIASSKSKARGADNAASPWRAPGAPMHRKVAVRLLEKHVATSAEDRREPISRSAANDVVIDATADYYQEP | −1.480 | −0.437 | −4.435 | −0.734 | −2.958
3 | SSAP_82: SEQ ID NO: 251 (protein) ENEVMTQDQAYEVASPFGSSENFQKLFDIGKMFASSSLVPDRYRGKPMDCTIAVDMANRMGVSPMMVMQQLYVVKGNPQWSGQACMSLIRGSSEYKNVRPVYTGKKGEDSWGCYIEAEKKKTGEIVKGTEVTIAMAKAEGWYSKKDKYGNETSKWQTMPELMLAYRAAAFFARVYIPNALMGCAVEGEAEDIMKRAITAEDPFKEDAK | −4.284 | −0.776 | −4.498 | −0.873 | −4.391
4 | SSAP_72: SEQ ID NO: 241 (protein) ATNSSLKNQLSKKENVTIGNTMQGLLNNPKMKKRFEEILDKKAPQYMSSILNLYNGDTSLQKCEPMSVLSSSMIAATMDLPVDKNLGYAWIVPYKNKAQFQMGYKGYIQLALRTGQYKHINAIEIHEGELVNWNPLTEELEIDFTKKESDKIIGYAGYFELLNGFKKSTYWTKTQIENHRKKFSKSDYGWNKDFDAMAIKTVIRNMLSKWGILSIEMQNAYTADENIIKDSFIDDSENVSANIEDLVEADYTVNQDSLESKEEFEGTPLE | 0.397 | 0.895 | 0.705 | 1.131 | 0.551
5 | SSAP_58: SEQ ID NO: 227; Pirellula sp. SH-Sr6A (protein, listed as Pirellula sp.) SEATKEAKPETAIAKKPNGIKDWLKSDALKTQIASVAPKHMAPERVMRIALNAVSRTPKLADCTPESFMRCLLDLSSWGLEPDGRHAHLIPYGTECTLVLDYKGLVTLAYRSGWVKKIHADVVFEGDIFVYSLGTVCQHIPWEFRDDANKPEHKGHFRAAYCVVTMADGIEKHEVMTASEIDAIKAKSRSGNSGPWKDHYTEMAKKTVYRRASKWLPLSPEQADAMERDDDRIIDAVSVAVTQRLSKAAMPLIGANETGDTE | −1.710 | −0.437 | −4.326 | −0.647 | −3.018
6 | SSAP_266: SEQ ID NO: 435; Bacteroides stercoris (protein, listed as Bacteroides stercoris) STITTIPQLKSMLANDNVKARFKEILGKKAPGFISSIVAVANSNTLLQKAEPQSIMNAAVVAATLDLPINPNLGFAYVVPYGNQAQFQMGWRGFVQLAMRSGQYKTINVNEIYEGEIKKSNRFTGEYEFGERASDKIVGYMAYFSLINGFEKFLYMSKEDCEKHGRKFSQTYKRGTGIWSTDFDSMAKKTVLKMLLSKFGILSIEMQRAQTFDQAIIKDNLAETDIDEAEVSYNDNPDNEEARRNAMKEALQEAEVVDENTGELFNTETK | −6.013 | −1.700 | −4.677 | −0.799 | −5.345
7 | SSAP_106: SEQ ID NO: 275; Tepidibacillus fermentans (protein, Tepidibacillus fermentans) ATNEKVKTQLANRANGQAPTPTPEQTIAAYMKKMAPRFAEVLPKHMDIDRMTRIALTTIRTNPKLLEASVPSLLGAIMQAAQLGLEPGLVGHCYLVPFKNGKTGQTEVQFIIGYKGMIDLARRSGNIESIYAHAVYENDTFEYEYGLHPKLVHKPAMTDRGEFIGAYAVAHFKDGGYQFEFMPKEEIEKRRNRSKTANGGPWVTDYEEMAKKTVVRHMWKYLPISIEIQQAAAQDEVIRKDVTSEPEFVDDVIDISTEIEEQSVEVEGEEAQ | −5.574 | −1.211 | −4.572 | −0.829 | −5.073
8 | SSAP_97: SEQ ID NO: 266; Gilliamella apicola (protein, listed as Gilliamella apicola) SEQNQPPIAKSDLEKTQLTNQDKKPATLAELVNSPKIKNQLAMALPKHMNPDRMARIVTTEIRKTPALADSNIQSFLGAVVQCSQLGLEPGGALGHAYLLPFGNGKAKDGKSNVQLIIGYRGMIDLARRSGQIISISARTVREGDDFHYEYGLNEDLKHTPKADESAPITYVYAVARLKDGGSQFEVMTFNQIESVRKQSKAGDKGPWITHWEEMAKKTVIRRLFKYLPVSIEIQQAVILDEKAEAGISQDNEMILDADFSVVEA | −5.948 | −1.267 | −4.633 | −0.842 | −5.290
9 | SSAP_65: SEQ ID NO: 234 (protein) TQDLATAIADQQPAQRRTAFDLVESMRGELHKALPEHASIDNFLRLALTELKMNPQLGNCSGESLLGALMTAARVGLEVGGPLGQFYLTPRRLKRDGWAVVPIVGYRGLITLARRAGVGQVNAVVVHEGDTFREGASSERGFFFDWEPAVERGKPVGALAAARLAGGDVQHRYLSLAEVHERRDRGGFKDGSNSPWATDYDAMVRKTALRALVPLLPQSTALSFAVQADEQVQRYDAGDIDIPALDETDTEDTK | 0.198 | 0.190 | −4.569 | −0.746 | −2.185
10 | SSAP_130: SEQ ID NO: 299; Peptoanaerobacter stomatis (protein, listed as Peptoanaerobacter stomatis) GAKELIQKKQENKQISPTSNMNMLLQSMAGAIKKALPAQINSERFQRVALTAFSSNQKLQQCDPISFLAAMMQSAQLGLEPNTPLGQAYLIPYGKQVQFQVGYKGLLELAQRSGQFKSIYSHEVRENDEFEMEYGLNQKLVHKPNLKQERGEVIGYYACYHLTNGGESMFFMTKDEIINFGKSKSKTFNNGPWQTDFDAMAKKTVLKQLLKYAPLSIESQKFMSMDETVKSDISANMDEINNDTVDFEVDIQTGEVINDIVVENTNEDEAN | −0.778 | −0.800 | −4.650 | −0.774 | −2.714
11 | SSAP_232: SEQ ID NO: 401; Lactococcus fujiensis JCM 16395 (protein, listed as Lactococcus fujiensis) KSAPVQARFQEVLGKKSSGFVSSLLTVVNNNNLLKRATPDSIMTAAMKAATLDLPIEPSLGFAYIIPYGQEAQFQIGYKGLIQLALRSGQITGLNSGIVYKSQFISYDPLFEELEIDFMQPEDEVVGYFASMKLSNGFMKVVYWTKARVENHKKRFSKAGAKSPWATDFDAMAQKTVLKAMISKFAPLSQEMQIAVIADNESETLEPKDVTPEQPLISIDEPKENENSQSQISIPEDQAPQQENEEFVEELFPVGQA | −1.056 | −0.259 | −4.457 | −0.721 | −2.757
12 | SSAP_291: SEQ ID NO: 460; Nocardia pseudobrasiliensis (protein, listed as Nocardia pseudobrasiliensis) SSIANAANASELTPASIVNRYRDDIAAVLPPKLQARIDRWLRLAIGAVNSNADLVDRVRADQGASMMQTLMKCAALGHEPGSGLFHLVPKGPRIEGWEDYKGVLQRIDRSGVYARVVVEVVHANDDYAYDPNLDDRPQHKRAAADRGEPVSAYAYAVYPNGAVTAVAEATPELIAASKAKARGADNASSPWRAPGAPMHRKVAIRQLEKFVATSAEDMREVAVRNAAPDVEDAPADYYQEP | −4.531 | −1.341 | −4.458 | −1.272 | −4.494
13 | SSAP_275: SEQ ID NO: 444; Paenibacillus pinihumi (protein, listed as Paenibacillus pinihumi) ADANKLLVINEKLIKLIESKQDAMPKSFNKTRFIQNCMAVLQDTDEIDKCDATSVARTLLKGAFLGLDFMNKECYPIIYGGKCTFQTDYKGEIKLAQKYSVRPVLNIYAELVREGDFFLKEVKDGQRTIQHKPPEGFNDGKVIGAFAIVLYKDGGMDCESMSVAEIETTRKNYSKQANGPSWTKSPGEMQKKTVLRRLCKTIQLDFDTIEAKEAFEDGGDFDFKQDPKPQQQSPFDKNATVVDAEYEEVEEEDQSESAT | −1.206 | −0.494 | −4.593 | −0.870 | −2.900
